Laboratory results taken from US20210171624A1 (ELIXIRON IMMUNOTHERAPEUTICS HONG KONG, published 2021).
Numbering of substitutions follows the chain as printed. Values belong to the molecule of their own block, whether it stands above or below them.

Experiments:
[1] = molecular target: T1, recombinant human IFN-γ protein (human, UniProt P01579 24-166, limits assumed); test: BLI (Octet RED96), mAb captured on AHC biosensor, recombinant human IFN-γ in solution, 1:1 model; second experiment
T1 sequence: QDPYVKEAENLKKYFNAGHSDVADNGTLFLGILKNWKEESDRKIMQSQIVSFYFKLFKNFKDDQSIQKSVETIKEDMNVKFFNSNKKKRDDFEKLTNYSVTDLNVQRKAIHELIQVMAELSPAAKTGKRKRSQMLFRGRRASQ
Protocol: (§1) Antibody-binding kinetic rate constants (kₐ and kd) were measured by Bio-Layer Interferometry (BLI, ForteBio Octet RED96). […] Rate constants were calculated by curve fitting analyses (1:1 Langmuir model) of binding response with a 5-minute association and 15-minute dissociation interaction time.

[2] = molecular target: T1, recombinant human IFN-γ protein; test: ELISA, biotinylated human IFN-γ on streptavidin plate, HRP anti-human IgG, OD 450-650 nm
Protocol: (§2) Recombinant human IFN-γ (R&D systems 285-IF-100) and Cynomolgus IFN-γ (R&D systems 961-RM-025) were biotinylated according to kit manual (EZ-Link NHS-LC-Biotin; Thermo #21336) and bound to streptavidin coated plate respectively. After incubated at room temperature for 1-2 hours, the plate was washed three times with 300 μL wash buffer. Serial dilutions of anti-IFN-γ antibody were added to wells. After incubated at room temperature for 1-2 hours, the plate was washed three times with 300 μL wash buffer. HRP anti-Human IgG was applied to each well at room temperature for 1 hour incubation. After washing, the plates were developed with TMB substrate, and analyzed under OD₄₅₀₋₆₅₀.

[3] = molecular target: T1, recombinant human IFN-γ protein; test: BLI (Octet RED96), mAb captured on AHC biosensor, recombinant human IFN-γ in solution, 1:1 model
Protocol: as §1

[4] = molecular target: T2, rhesus macaque/cynomolgus IFN-γ (rhesus macaque/cynomolgus, UniProt P63310 24-165); test: ELISA, biotinylated rhesus macaque/cynomolgus IFN-γ on streptavidin plate, HRP anti-human IgG, OD 450-650 nm
T2 construct: also called R&D systems 961-RM-025
T2 sequence (looked up): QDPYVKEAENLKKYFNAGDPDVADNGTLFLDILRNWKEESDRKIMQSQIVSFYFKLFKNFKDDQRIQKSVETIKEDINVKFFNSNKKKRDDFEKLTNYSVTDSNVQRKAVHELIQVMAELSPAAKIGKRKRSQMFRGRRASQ
Protocol: as §2

bovine serum albumin = molecular target: T3, bovine serum albumin (bovine, UniProt P02769 25-607); test: ELISA, plate coated with 2 µg/mL BSA, anti-human IgG Fc-AP detection, OD 405 nm
T3 construct: also called BSA
Protocol: A clear polystyrene 96-well, flat-bottomed plate (Nunc) was coated with 100 μL of recombinant human IFN-γ protein (2 μg/mL) or BSA (2 μg/mL) in bicarbonate buffer (pH 9.6) per well and incubated at 4° C. overnight. The plate was washed three times using phosphate-buffered saline (PBS) with 0.05% Tween 20 and then blocked with 5% human normal serum albumin (Aventis) in PBS for 2 hours at 25° C. The plate was washed again using PBS with 0.05% Tween 20, after which each of 1E8, 2F2, 2A6, 2B6, AB and BA mAbs in two different concentrations of 1 μg/mL and 0.1 μg/mL were added into the wells of the plate for binding with the recombinant human IFN-γ protein, followed by reaction at 25° C. for 2 hours. The plate was thoroughly washed using PBS with 0.05% Tween 20, and then Fc-specific alkaline phosphatase-conjugated AffiniPure Goat anti-human IgG (Cappel) was added at a dilution ratio of 1:2500. The plate was placed for 90 minutes at 37° C. and then washed five times using PBS with 0.05% Tween 20. After adding p-Nitrophenyl phosphate (pNPP) solution (100 μL/well), the plate was placed at 37° C. for 30 minutes. Absorbance was determined at OD405 nm with a VICTOR X3 Multilabel Plate Reader (PerkinElmer).

[5] = molecular target: T1, recombinant human IFN-γ protein; test: cell-based or functional assay

T3 sequence (P02769 25-607 limits assumed): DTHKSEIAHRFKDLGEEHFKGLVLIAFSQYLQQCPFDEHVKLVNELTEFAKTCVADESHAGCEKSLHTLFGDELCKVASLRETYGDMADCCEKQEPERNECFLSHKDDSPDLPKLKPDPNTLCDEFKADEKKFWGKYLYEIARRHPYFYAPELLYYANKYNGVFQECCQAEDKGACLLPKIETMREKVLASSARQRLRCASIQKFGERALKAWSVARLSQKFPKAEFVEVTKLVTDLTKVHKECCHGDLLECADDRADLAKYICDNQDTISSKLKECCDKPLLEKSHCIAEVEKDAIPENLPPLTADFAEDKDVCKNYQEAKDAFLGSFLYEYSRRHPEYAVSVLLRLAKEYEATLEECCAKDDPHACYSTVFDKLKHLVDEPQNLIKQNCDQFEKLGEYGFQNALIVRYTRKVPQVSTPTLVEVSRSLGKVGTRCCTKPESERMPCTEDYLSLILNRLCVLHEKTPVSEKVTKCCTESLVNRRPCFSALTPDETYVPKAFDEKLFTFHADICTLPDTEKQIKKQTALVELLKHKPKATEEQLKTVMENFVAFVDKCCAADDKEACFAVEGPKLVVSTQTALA

Kd [1]: 0.0347 nM
koff [1]: 8.59e-05 s⁻¹
kon [1]: 2.48e+06 M⁻¹ s⁻¹
EC50 (read off the curve) [2]: 5 ng/mL
Molecule: AMG811 (antibody)

Kd [3]: 0.0731 nM
koff [3]: 0.000108 s⁻¹
kon [3]: 1.48e+06 M⁻¹ s⁻¹
Kd [1]: 0.0172 nM
koff [1]: 5.4e-05 s⁻¹
kon [1]: 3.13e+06 M⁻¹ s⁻¹
EC50 (read off the curve) [4]: ~5 ng/mL
binding result (bovine serum albumin): no binding (tested: 1.0 µg/mL)
EC50 (read off the curve) [2]: ~7 ng/mL
IC50, inhibition of IFN-γ induced HLA-DR expression on THP-1 cells [5]: 3.5 ng/mL
IC90, inhibition of IFN-γ induced HLA-DR expression on THP-1 cells [5]: 1020 ng/mL
B1: antibody 2B6 (antibody, human IgG1, V domains shown)
VH: EVQLVESGGGLVKPGGSLRLSCAASGFPFSRYSMHWVRQAPGKGLEWVSSMTSRTNHKYYADSLKGRFLISRDNDRDSLYLEMNSLGVEDTAIYFCARGYDTSGSDSGVDFQYWGQGTLVTVSS
VL: NFMLTQPHSVSESPGKTITISCTRGRGYIASYYVQWYQQRPGGVPKIVVFEDTQRPSGVPDRISGSIDTSTNSASLTISGLQTEDEADYYCQSYDDANHVIFGGGTKLTVL
notes: Human IgG1 lambda

Kd [3]: 0.317 nM
koff [3]: 0.000109 s⁻¹
kon [3]: 344000 M⁻¹ s⁻¹
binding result (bovine serum albumin): no binding (tested: 1.0 µg/mL)
IC50, inhibition of IFN-γ induced HLA-DR expression on THP-1 cells [5]: 36.1 ng/mL
IC90, inhibition of IFN-γ induced HLA-DR expression on THP-1 cells [5]: 508 ng/mL
B2: antibody 2F2 (antibody, human IgG1, V domains shown)
VH: EVQLVESGGGLVKPGESLRLACVASGFNFSDYYMTWIRQAPGKGLEWVSYISNSGSHTYYADAVKGRFTVSRDNAKNSLYLQMTSLRGEDTAIYFCARDPSIMRGTYYMDVWGKGTTVTVSS
VL: QSVLTQPPSASGTPGQRVTISCSGSSSNIGTNPVSWYQQFPGMAPKLLIYFNNQRPSGVPERFSGSKSGTPASLAIGGLQSEDEANYYCASWDDTLNGLVFGGGTKLTVL
notes: Human IgG1 lambda

Kd [3]: 0.261 nM
koff [3]: 0.000121 s⁻¹
kon [3]: 464000 M⁻¹ s⁻¹
binding result (bovine serum albumin): no binding (tested: 1.0 µg/mL)
IC50, inhibition of IFN-γ induced HLA-DR expression on THP-1 cells [5]: 8.6 ng/mL
IC90, inhibition of IFN-γ induced HLA-DR expression on THP-1 cells [5]: 48.6 ng/mL
B3: antibody 1E8 (antibody, human IgG1, V domains shown)
VH: EVQLLESGGGLVQPGGPLRLSCAASGFTFSIYSMNWVRQAPGKGLEWVSSISGSGDNTYYADSVKGRFTITRDSSKNTLYLQMNTLRAEDTAVYFCAKSGRNIISPGFDSWGQGTLVTVSS
VL: QPVLTQPPSASASLGASVTLTCTLNSDYGDYKVDWYQQRPGKGPRFVMRVGTGGIVGSKGDGIPDRFSVLGSGLNRFLTIKNIQEEDESDYYCGADHGSANNFIWVFGGGTKLTVL
notes: Human IgG1 lambda

Kd [3]: 0.0368 nM
koff [3]: 3.97e-05 s⁻¹
kon [3]: 1.08e+06 M⁻¹ s⁻¹
Kd [1]: 0.0187 nM
koff [1]: 4.9e-05 s⁻¹
kon [1]: 2.61e+06 M⁻¹ s⁻¹
EC50 (read off the curve) [4]: ~5 ng/mL
binding result (bovine serum albumin): no binding (tested: 1.0 µg/mL)
EC50 (read off the curve) [2]: ~7 ng/mL
IC50, inhibition of IFN-γ induced HLA-DR expression on THP-1 cells [5]: 3.4 ng/mL
IC90, inhibition of IFN-γ induced HLA-DR expression on THP-1 cells [5]: 3850 ng/mL
B4: antibody 2A6 (antibody, human IgG1, V domains shown)
VH: EVQLVESGGGLVKPGDSLTVSCVASGFTFSNYFIHWVRQAPGKGLEWVATISGRTKYMFYSDSLRGRFTVSRDNANNSVYLHMSSLRGEDTALYYCVRGYDHSDSNSAADLLHWGRGTLVTVSS
VL: NFMLTQPLSVSGYPGKTIVISCVRSSGSVASHYVQWFQQRPGSAPAMVIYEDSHRPSGIPDRFSGSVDASSNSASLTISGLKTEDEADYFCQSYYGNNQVLFGGGTKLTVL
modifications: partial N-linked glycosylation at Asn-76 of the VH
notes: Human antibody from a single B cell, cloned into human IgG1 lambda expression vectors and made in FreeStyle 293-F cells

Kd [1]: 0.025 nM
koff [1]: 5.46e-05 s⁻¹
kon [1]: 2.19e+06 M⁻¹ s⁻¹
EC50 (read off the curve) [4]: ~5 ng/mL
binding result (bovine serum albumin): no binding (tested: 1.0 µg/mL)
EC50 (read off the curve) [2]: ~7 ng/mL
B5: antibody AB (antibody, human IgG1, V domains shown)
VH: B4 VH
VL: B1 VL
notes: Combination of the 2A6 VH heavy chain and the 2B6 VL light chain; human IgG1 lambda; also called VH2A6/VL2B6

binding result (bovine serum albumin): no binding (tested: 1.0 µg/mL)
B6: antibody BA (antibody, human IgG1, V domains shown)
VH: B1 VH
VL: B4 VL
notes: Combination of the 2B6 VH heavy chain and the 2A6 VL light chain; human IgG1 lambda; also called VH2B6/VL2A6

Kd [1]: 0.0223 nM
koff [1]: 5.17e-05 s⁻¹
kon [1]: 2.32e+06 M⁻¹ s⁻¹
EC50 (read off the curve) [4]: ~5 ng/mL
EC50 (read off the curve) [2]: ~7 ng/mL
B7: antibody 2A6_A (antibody, human IgG1, V domains shown)
VH: B4 VH with N76A
VL: B4 VL
notes: removes the N-glycosylation site of the VH; human IgG1 lambda; also called c2A6_A

Kd [1]: 0.0217 nM
koff [1]: 5.23e-05 s⁻¹
kon [1]: 2.41e+06 M⁻¹ s⁻¹
EC50 (read off the curve) [4]: ~5 ng/mL
EC50 (read off the curve) [2]: ~7 ng/mL
B8: antibody 2A6_Q (antibody, human IgG1, V domains shown)
VH: B4 VH with N76Q
VL: B4 VL
notes: removes the N-glycosylation site of the VH; human IgG1 lambda; also called c2A6_Q
